Reference: the DeepSol protein solubility set

Test: soluble on expression in E. coli; label from the status in PepcDB or PDB records

Row | Sequence | soluble on expression in E. coli
1 | MSVLDISIIIANYNTEEFLRNCLNSIKSTVKNVKYEVIVTDNNSKDDSVTMIKNEFPWVKLIESKINGGFAYANNLAIKESSGKYIFLLNTDTVLLKDVIEKMVNYMDENKDVGLLGPKLLNRDMSHQTSVSGFPSFKREFYHIYKLKNILKIPILKKIIVAMSGKIGSKDVEQYMMNFKSIDEPREVQVLVGAALLVRRNVIDKIGMLDERYFMYYEEIDFCYQANKAGFKAVYYPNGEIIHYIGQAATKSRILEHHHHHH | soluble
2 | MSVNFSPCVLIPCYNHGAMMPGVLARLKPFNLPCIVVDDGSDATTQQQLDSLLAEQPGVTLIRLAENAGKGAAVMRGLQAAADAGFSHAVQVDADGQHAIEDIPKLLALAEQQPAALISGQPIYDDSIPRSRLYGRWVTHVWVWIETLSLQLKDSMCGFRVYPVAPTLQLAKHATIGKRMDFDTEVMVRLYWQGNTSYFVPTRVTYPLDGLSHFDALKDNVRISLMHTRLFFGMLPRIPSLLMRRSSCHWARQSEVKGLWGMRLMLLVWRLLGRTAFSALLYPVVGVYWLTASRARKASQDWLARVRQHQPQAAKLNSYQHFLRFGNAMLDKIASWRGELQPGRDVLFAPGAEAALDVRDPRGKLLLASHLGDVEVCRALAKIQGYKTINALVFSENAQRFKQIMQEMAPQAGINLMPVTDIGPETAILLKEKLDNGEWVAIVGDRIAVNPQRGGDWRVCWSSFMGQPAPFPQGPFILASILRCPVNLIFALRQHGKLHIHCESFADPLQLPRGERQQALQNAIDHYAARLEHYALQSPLDWFNFFDFWQLPEIQDKE | not soluble
3 | MSVNPFFDPRTLGEMVFGDNGRLDREYVPISENNDDLSDCRNEIVDTHEKFSVNLNVPDVKPEELKINLEGRKLSIKAEHQEIENDNISTTQTYSKSIVLPEDVDVTHLSSNLSEDGKLLIEVPKVEAKKTNFFGFLSKFRCMPESQ | not soluble
4 | MSVSNKLGDLASKVYENVLLEEVKKYPRPRHIGIITDGNRRYARNVGISENEGHVKGKEKVEEVVDWCMELDIRIVTFYAFSTENFRRSPEEVDFLFHLIDNAFKSLLKDERVYKNRINVKVIGNLSILPAYLRQTIHIVEETTKNFNNYQLNLAIGYGGREEILDAIKRITRDAMDGKLNIDELDEEKFRMYLYDGRIPDPDLILRTSGEERISNFLLWQSAYSELYFSDVYWPEFSKLDFLRAIYSYQRRQRRFGR | soluble
5 | MSVWASRLKAMGLLENLLNRYTPRTSGTPVFAVIDTGTTGFNKRYDHIIELAAVRADAYFKPVDSWHALLNPDTNAVSTTRGTPPPTSALNPAVGVTRSEAS | not soluble
6 | MSWREKLGMIHIYTGNGKGKTTAALGLALRMLGSGGKVIIIQFMKAPKVYGEYFMAEKCNFKIESYGLPKFVHGKPDEEDIKAAKRALERAREVVKSGEWDLVILDEICVALGFGMLNIEEVKELIQEKAKNTELVLTGRYCPKELYELADYVTEMREIKHPYQRGILARRGVEY | soluble
7 | MSYKGSSIPVCSRISSLYFFSVYLQDLADMEDRTSTSRCSSTTRIKPTKIAGFGTVPLLSSAGTNQSVLSTKSAKSCLSNTIAASMTEPQVSMTQVDRMYEDNLARKKRSMVAVSEFNKIYGQEYHPPSSSESTRSFYENIDAVYPSSKASESSSSSASTGSSDNRKDIEKWEKLDSEAESDIELFIKVSDCFD | not soluble
8 | MSYPSLFAPLDLGFTTLRNRVLMGSMHTGLEEHPDGAERLAAFYAERARHGVALIVTGGIAPVPSGVVMTGGAMLNDASQLTPHRVVTDAVHAQGGKIALQILHTGRYSYQPHLVAPSAIQAPINRFMPHELTHDEILQLIDDFAHCAQLAREAGYDGVEVMGSEGYLINEFLTRRTNHRDDEWGGDYASRMRFAVEVVRAVRQRVGNDFIIIYRLSMLDLVENGGTFDETVQLAQAIEAAGASLINTGIGWHEARIPTIATPVPRGAFSWVTRKLKGHVSVPLIATNRINDPQVAETILTRGDADMVSMARPFLADAEFLTKAQSGRADEINTCIGCNQACLDRIFIGKVTSCLVNPRACHETHMPITPAIRKKNLAVVGAGPAGLAFAINAASRGHHVTLFDAQSEIGGQFTIARQIPGKEEFYETLRYYRRMIDVTGVTLKLNQRVNAEDLQPFDEAILACGIVPRRPPIDGIDHPKALTYLEVLRDKAPVGKRVAIIGCGGIGFDTAMYLSQHGESTSQNIAEFCTEWGIDTSLQQAGGLRPEGPRLARSPRQIVMLQRKTSKPGEGLGKTTGWIHRATLLARGVKMIPAVSYQKIDDDGLHLLIGGEPQLLEVDHVVICAGQEPRRELADPLRAAGKTVHLIGGCDVAMELDARRAIAQGTRLALEI | not soluble
9 | MSYPWSNKNGEAASSSKTTVAPPLSPPRYEKVLDFSTLDTQRHRYEVRDQANQRAVVSSAKAESSMIDKFCKENTRIQTNPGIDLPDDYGTDAIVANAIGDQRIVNNLKCVHVTTFNAVQQMSIQVIREGRGLVVEAPTGIGKTYAFLIPAIEAALKNRQSNCFEYTKPSPSILIMASTSALVDQLFNRCELILGLQCMDNVEPIRDIKIDKLVANHPFTKGQCDIAFCTIGKLKATIECGDVCLDNLKTIILDEADKMIDNCAFGPDINWILDQLKEENLENLQSCFFSATYNKNANGTIALTVLQMRMLGEDDPWSVIICPRMSGYITQRVVRVGRGRPNDIRSHPWVIKMGIIRKLIDDDLKETGCSKDGPYNETIAIFCETVQRVTQVTMALRQLGYNFKPVCSMITKNQQLVTVNDLEFRKIHGVVCTNILARGIDVSSVKHTIIMEMSADFDTYKHRIGRVGRDGCGGKSTVLVEHHQLQGGPASNVIEQLYNFMKESKEDIPQWMQEWIVARRNNNIDSWA | not soluble
10 | MSYVTTKDGVQIFYKDWGPRDAPVIHFHHGWPLSADDWDAQLLFFLAHGYRVVAHDRRGHGRSSQVWDGHDMDHYADDVAAVVAHLGIQGAVHVGHSTGGGEVVRYMARHPEDKVAKAVLIAAVPPLMVQTPGNPGGLPKSVFDGFQAQVASNRAQFYRDVPAGPFYGYNRPGVEASEGIIGNWWRQGMIGSAKAHYDGIVAFSQTDFTEDLKGIQQPVLVMHGDDDQIVPYENSGVLSAKLLPNGALKTYKGYPHGMPTTHADVINADLLAFIRS | soluble
11 | MTADANKSESLLCMDKAREAIKSGDTDKARRMLLKAKKLDPGQNIEFLTKKIDDMTNNTSSSSQTSSSRASEERSYAHDDHYDDPNLRNRKARSPVKKNGKTEPEPKQRSASRTPKLGVDYTSEQKELVERIRHCKDYYEILKIDKKASDDDIRKEYRKLALKLHPDKCRAPHATEAFKALGNAYAVLSDTDKRRQYDQYGAEAANSHTPTTRRRGGGHGAFFEHDYAHGFEAEFTPEEIFNMFFGGGFPTEQVRRRARYAQQQQYHHYEQQQSPYGPLLQLLPLIAIMVIGLLAQLMVGEPAYSLHQTSKFTIKRLTADLRVPYFVRTDFETSYRGRIRQVEQQVEDDYIQNLRMNCYKEQNLKETKLYRARWMRDEAMMRDAERTPLPSCIRLNEIYSH | soluble
12 | MTADRPALRTGDRDTRLSFGSNLSSFTDYLRGHAPELLPENRIGHRSHSTRGGDGMESGDLAPHGTTIVALTYKGGVLLAGDRRATQGNLIASRDVEAVYVTDEYSAAGIAGTAGIAIELVRLFAVELEHYEKIEGVPLTFDGKANRLASMVRGNLGAAMQGLAVVPLLVGYDLDADDESRAGRIVSYDVVGGRYEERAGYHAVGSGSLFAKSALKKIYSPDSDEETALRAAIESLYDAADDDSATGGPDLTRGIYPTAVTITQAGAVHVSEETTSELARRIVAERTEQGGSAR | soluble
13 | MTAHFPFDNSYVALPPNFFARVAPTPVAAPRLIKLNRPLAVQLGLDPDLLETPEGAEILSGNQMPETAASIAMAYAGHQFGNFVPQLGDGRAILLGEVVDRNGVRRDIQLKGAGRTPFSRMGDGRAALGPVLREYIVSEAMAALGIPTTRSLAAVLTGETVLRDPIQPGAVLTRVASSHIRVGTFQYFAARGDLASVRALADHAIARHYPEAAQAPSPYLALLEGVIGRQAELVASWMMVGFIHGVMNTDNCSVAGETIDYGPCAFMDTFDPKTVYSSIDQFGRYAYGNQPPIALWNLTRLAECLVRLLADDDDKGIEIAQTALGGFAEQFNAAYLAKLAAKLGLFTSQPDDQQLSQEFLTALAKGEADFTLAFRRLSDAAVDPSDLGEVRALFADPAAFDEWAPRWRARIATEPQDATTRQAAMRRVNPAYIPRNHRIEAVIRAAVDRDDFAPFEEILTVLANPFEEKAEFARYAEPPQPHEQVLETFCGTAAALEHHHHHH | soluble
14 | MTAKMETTFYDDALNASFLPSESGPYGYSNPKILKQSMTLNLADPVGSLKPHLRAKNSDLLTSPDVGLLKLASPELERLIIQSSNGHITTTPTPTQFLCPKNVTDEQEGFAEGFVRALAELHSQNTLPSVTSAAQPVNGAGMVAPAVASVAGGSGSGGFSASLHSEPPVYANLSNFNPGALSSGGGAPSYGAAGLAFPAQPQQQQQPPHHLPQQMPVQHPRLQALKEEPQTVPEMPGETPPLSPIDMESQERIKAERKRMRNRIAASKCRKRKLERIARLEEKVKTLKAQNSELASTANMLREQVAQLKQKVMNHVNSGCQLMLTQQLQTF | soluble
15 | MTALFCLELRTNIFLIMNDCIIINYWKGFIFSFHSYFFPFRFESSLRAHYPGKRNYSDFSVIPLPYYIDVRSFHICESQHIIALPLQIPLPYRMLIRMYPV | soluble
16 | MTATSDKVLKIQLRSASATVPTKGSATAAGYDIYASQDITIPAMGQGMVSTDISFTVPVGTYGRIAPRSGLAVKNGIQTGAGVVDRDYTGEVKVVLFNHSQRDFAIKKGDRVAQLILEKIVDDAQIVVVDSLEESARGAGGFGSTGN | not soluble
17 | MTDAAEEVLLGKKGCTGVITLNRPKFLNALTLNMIRQIYPQLKKWEQDPETFLIIIKGAGGKAFCAGGDIRVISEAEKAKQKIAPVFFREEYMLNNAVGSCQKPYVALIHGITMGGGVGLSVHGQFRVATEKCLFAMPETAIGLFPDVGGGYFLPRLQGKLGYFLALTGFRLKGRDVYRAGIATHFVDSEKLAMLEEDLLALKSPSKENIASVLENYHTESKIDRDKSFILEEHMDKINSCFSANTVEEIIENLQQDGSSFALEQLKVINKMSPTSLKITLRQLMEGSSKTLQEVLTMEYRLSQACMRGHDFHEGVRAVLIDKDQSPKWKPADLKEVTEEDLNNHFKSLGSSDLKFAENLYFQ | soluble
18 | MTDDKKIRAAIVGYGNIGRYALQALREAPDFEIAGIVRRNPAEVPFELQPFRVVSDIEQLESVDVALVCSPSREVERTALEILKKGICTADSFDIHDGILALRRSLGDAAGKSGAAAVIASGWDPGSDSVVRTLMQAIVPKGITYTNFGPGMSMGHTVAVKAIDGVKAALSMTIPLGTGVHRRMVYVELLPGHNLEEVSAAIKADEYFVHDETHVIQVDEVDALIDMGHGVRMVRKGVSGSTQNQRMSFDMEINNPALTGQVLVCAARAAMRQQPGAYTLQEIPVIDLLPGDREQWIGKLC | soluble
19 | MTDEFKKSTANLKKAVPLMIKNHVAATPANYALWYTYVDKTIPELNFEMDEVLEHYGICPPAANKQLYNNYVASRAETSLEDLKTNVEVLLHEVSSSMSDTLSDTSSFSAMVDKSFNKLEKVEDNSLSIEEVMVVIRQLVAESHEIRHSTKFLNRQLTNASEEISR | not soluble
20 | MTDIQDVISPKLAVAIANPIFPAVDSLLRSGRHISTEHLDNHAFLMDFQNELDGFYRRYNVELIRAPEGFFYLRPKATTLIARSVLSELEMLVGKVLCYLYLSPERLAQQGIFSTQEVYDELLNLADEGKLLKAVNQRSSGSDLDKQKLAEKVRAAIGRLRRLGMIQTVGEQNSGKFTISESVFRFGAEVRSGDDPLESQARLIRDGEAATPDSLALEKQAQLMENDTKSADEIDEEFDGEQELEHHHHHH | soluble
